# Values of other authors as cited in article PMC11379947 (Nature Communications, 2024).
# T1: ICOS (Homo sapiens, UniProt Q9Y6W8)
# T1 sequence (Q9Y6W8 21-199): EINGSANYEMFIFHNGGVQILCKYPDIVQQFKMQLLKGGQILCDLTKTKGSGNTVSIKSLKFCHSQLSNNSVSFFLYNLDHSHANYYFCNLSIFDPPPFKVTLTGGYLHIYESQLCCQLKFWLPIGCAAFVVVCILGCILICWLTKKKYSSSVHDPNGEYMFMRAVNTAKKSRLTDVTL
# B1: ICOSL: the natural ICOS ligand (protein, UniProt O75144 19-302, looked up)
# ICOS ligand: DTQEKEVRAMVGSDVELSCACPEGSRFDLNDVYVYWQTSESKTVVTYHIPQNSSLENVDSRYRNRALMSPAGMLRGDFSLRLFNVTPQDEQKFHCLVLSQSLGFQEVLSVEVTLHVAANFSVPVVSAPHSPSQDELTFTCTSINGYPRPNVYWINKTDNSLLDQALQNDTVFLNMRGLYDVVSVLRIARTPSVNIGCCIENVLLQQNLTVGSQTGNDIGERDKITENPVSTGEKNAATWSILAVLCLLVVVAVAIGWVCRDRCLQHSYAGAWAVSPETELTGHV
# Biological target: T1, ICOS
# Conditions: read-out: KD of natural ICOS ligand; cited from earlier work
molecule,measurement,value
B1,Kd,722 nM
